These results are taken from US20260007728A1, “COMBINATION THERAPIES INVOLVING L-ASPARAGINASE” (Jazz Pharmaceuticals Ireland Ltd., priority 2022, published 2026).

One series concerns DLBCL lines. The series can be described thus: Single-agent sensitivity of lymphoma lines (dose-response, 72 hrs incubation). The class given is cell-based. The settings on record: ABC, GCB, and THL lines; read-out: sensitivity to carfilzomib (range). The source says:
Sensitivity to asparaginase and 11 chemotherapeutic agents (carfilzomib, doxorubicin, rapamycin, ibrutinib, cyclophosphamide, prednisolone, metformin, venetoclax, navitoclax, rituximab and vincristine) determined in 8 lymphoma lines, including diffuse large B-cell and Burkitt lymphomas. The investigated lymphoma lines are sensitive to asparagine depletion within the clinically achievable range. Expression of decisive genes (BCL2, BCL6, BCL2L1, MYC, ASNS) determined in 8 lymphoma lines (FIGS. 11 and 12). Increased expression of BCL2 served as marker for resistance of ibrutinib and rapamycin in triple hit lymphoma (FIGS. 11 and 12). Increased expression of ASNS served as marker for resistance of carfilzomib and asparaginase in Burkitt lymphoma (FIGS. 11 and 12). Identified combination agents that enhanced asparaginase activity in vitro include synergy of JZP458 and rituximab, venetoclax and ibrutinib in lymphoma lines (DLBCL) (see FIG. 13, FIG. 15, and FIG. 17). […] In vivo tolerability study of long acting Erwinia Asparaginase.
ABC-DLBCL lines and one of GCB-DLBCL lines are very sensitive to JZP458 in the range of 0.011-7.3 IU/mL. Dose-response curve overlays-72 hrs incubation.

For series [1], the system named is ASNS expression in Burkitt lymphoma lines. In words: qPCR gene expression after compound treatment. The class given is cell-based. Particulars: for change of ASNS expression: Burkitt lymphoma lines; for increase of ASNS expression: Burkitt lymphoma lines (BJAB, RAJI, RAMOS), after treatment. The method, then: (§1) Cell Culture: Cell culture medium: RPMI 1640 medium (#2198761, Thermo Fisher) supplemented with 10% fetal calf serum (#S00AZ, BioWest) and 1% pen/strep (#15140-122, Thermo Fisher). At day-1, 900 μl cell suspension was seeded in 24-well plates (#662165, Greiner Bio-One) at a density of 128,000 cells/well. At day 0, 100 μl compound was added in three different concentrations to reach a final concentration of 0.316×IC50, 1×IC50, and 3.16×IC50 (unless indicated otherwise). To the control samples, 100 μl 20 mM HEPES+3.16% DMSO was added instead of compound. When the compound is prepared in HEPES instead of DMSO, 20 mM HEPES without DMSO was added to the cells. The cells were collected at 6 hours, 24 hours and 48 hours after addition of the compound and were transferred to a 96-well deep well plate and centrifuged for 5 min at 340×g. Prior to the collection of the cells microscopic pictures were taken from the untreated (control) cells. After removing the medium, 200 μl RNA protect (#76526, Qiagen) was added to the cell pellet and the cells were stored at −80° C.
(§2) RNA isolation: Total RNA was isolated with the SV96 Total RNA Isolation System kit (#Z3505, Promega) according to manufacturer's instructions. The procedure includes a ‘RNAse free DNAse’ gDNA removal step.
(§3) Determining the RNA concentration: RNA concentrations were determined with the RiboGreen (#R11490, Thermo Fisher) kit according to manufacturer's instructions.
(§4) cDNA synthesis: RNA was reverse transcribed into cDNA using the Quantitect Reverse Transcript Kit (#205313, Qiagen) according to manufacturer's instructions. This procedure includes a second ‘RNAse free DNAse’ gDNA removal step, ensuring the complete removal of gDNA from the samples. For each time point (6 h, 24 h, or 48 h) identical volumes of RNA were used for cDNA synthesis. After synthesis, cDNA is diluted with nuclease free water to obtain approximately similar cDNA concentrations per sample.
(§5) qPCR: 1) 50° C. for 10 min (Uracil-DNA glycosylase ([…]) step to remove all potential traces of amplicon DNA from previous qPCRs); 2) 5 min UDP inactivation/denaturation at 95° C.; 3) 40 cycles of 10s denaturation at 95° C., 20s annealing at 60° C., and 30s extension at 72° C.; and 4) Dissociation curve to determine the melting temperature of the qPCR amplicon.
(§6) qPCR Data Analysis: Cq and Tm raw data values are determined by the BioRad CFX manager software from the PCR machine. For every PCR sample that produced a Cq value the corresponding melting temperature of the PCR amplicon (Tm) was checked to identify samples that generated dual or a specific PCR products. A PCR product is regarded a specific when its Tm is >0.5° C. different from that the Tm of the specific PCR amplicon, in this case the Cq value is removed and not used for further data analysis. Cq values were than normalized by subtracting the (mean) Cq value of the two housekeeping genes (ACTB & RPS18) from the Cq value of the gene of interest. The normalized value is called DCq. The Cq difference between sample and the control (DDCq) was calculated by subtracting DCq control from DCq sample. The fold difference in expression between the control (no compound) and the compound treated sample is than calculated according the 2^-DDCq method.
In general terms: In qPCR the cycle at which signal appears reflects the starting amount.

Series [2] deals with BCL2 expression in DLBCL lines (ABC and GCB type). In words: qPCR gene expression after compound treatment. The series is classed as cell-based. The method, then:
as §1, §2, §3, §4, §5, §6

Series [3] can be described thus: Half life of asparaginases. Particulars: in vivo.
For series [4], the system named is liquid tumors with NRAS mutations. The series can be described thus: Sensitivity to L-asparaginase across cell line panel by NRAS status. The class given is cell-based. The settings on record: NRAS mutant vs other lines. The method, then:
Sensitivity to L-asparaginase was determined in 140 lines across multiple indications. In silico tandem perturbation effects of Asparagine synthetase and signaling components analyzed (≈700 lines). A subset of lines are ASNS dependent for survival (see McDonald, E. Robert et al. (2017). Project DRIVE: A Compendium of Cancer Dependencies and Synthetic Lethal Relationships Uncovered by Large-Scale, Deep RNAi Screening. Cell 170, 577-592 and https://oncologynibr.shinyapps.io/drive/which is herein incorporated by reference to show expression of ASNS and sensitivity to asparagine depletion). In vitro, most lines are sensitive to asparagine depletion within a clinically achievable range (see FIG. 6).

As to `CC(C)C[C@H](NC(=O)[C@H](CCc1ccccc1)NC(=O)CN1CCOCC1)C(=O)N[C@@H](Cc1ccccc1)C(=O)N[C@@H](CC(C)C)C(=O)[C@@]1(C)CO1` [carfilzomib, reference compound], the IC50 in the series on DLBCL lines lay in the range of 1.3 to 7.2 nM. Moreover, in series [1], the “change of ASNS expression” value is “significantly increase” and the “increase of ASNS expression” value came out at 1.25 fold.

B1: JZP-458: recombinant, unfunctionalized, short acting Erwinia L-asparaginase (SEQ ID NO: 1 tetramer) (protein, listed as Dickeya chrysanthemi)
chain: ADKLPNIVILATGGTIAGSAATGTQTTGYKAGALGVDTLINAVPEVKKLANVKGEQFSNMASENMTGDVVLKLSQRVNELLARDDVDGVVITHGTDTVEESAYFLHLTVKSDKPVVFVAAMRPATAISADGPMNLLEAVRVAGDKQSRGRGVMVVLNDRIGSARYITKTNASTLDTFKANEEGYLGVIIGNRIYYQNRIDKLHTTRSVFDVRGLTSLPKVDILYGYQDDPEYLYDAAIQHGVKGIVYAGMGAGSVSVRGIAGMRKAMEKGVVVIRSTRTGNGIVPPDEELPGLVSDSLNPAHARILLMLALTRTSDPKVIQEYFHTY
modifications: homotetramer
For the molecule B1, the “change of BCL2 expression” value in series [2] is given as “decrease”. In series [1], the “change of ASNS expression” value was “significantly increase” and the “increase of ASNS expression” value is on record as 0.75 fold. Moreover, in series [3], the “half life t½” value is approximately 2.13 h. Further, the “sensitivity of liquid tumors with NRAS mutations” value in series [4] was “more sensitive”.
